Reference: the supplement of paper PMC10724198
± gives the standard deviation of the averaged measurements.

Experiments:
[1] = test system: Saccharomyces cerevisiae; assay: protein stability index of tFT-peptide fusion (C-terminal peptide) (PSI (0-1 scale)); higher = more stable (slower turnover)
Description: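 MPS profiling in S. cerevisiae of the tFT-X12 degron library: putative degron peptides plus stable controls, 12 aa, fused to the C-terminus of a sfGFP-mCherry timer. Cells are FACS-sorted into 8 mCherry/sfGFP bins and deep-sequenced. PSI runs from 0 (unstable) to 1 (stable). Backgrounds are wild type, das1Δ and doa10Δ at 30 °C, and wild type, das1Δ, cdc34-1 and cdc53-1 at 37 °C; 2-3 technical replicates each.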

[2] = test system: Saccharomyces cerevisiae; assay: as above; conditions: genetic background: wild type; temperature: 30 C
[3] = genetic background: cdc34-1, temperature: 37 C
[4] = genetic background: cdc53-1, temperature: 37 C
[5] = genetic background: das1 deletion, temperature: 30 C
[6] = genetic background: das1 deletion, temperature: 37 C
[7] = genetic background: doa10 deletion, temperature: 30 C
[8] = genetic background: wild type, temperature: 30 C
[9] = genetic background: wild type, temperature: 37 C
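Note: PSI is a weighted mean of sequencing reads over stability bins, variants kept only with over 10 reads, mCherry proximal and sfGFP distal, peptide attached via GGGS linker.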

Row | Sequence | protein stability index [1, 3] | protein stability index [1, 4] | protein stability index [1, 5] | protein stability index [1, 6] | protein stability index [1, 7] | protein stability index [1, 8] | protein stability index [1, 9] | protein stability index [2]
1 | DGSFCLLYMTIA | 0.504 ± 0.066 | 0.5745 ± 0.002 | 0.429 ± 0.02 | 0.615 ± 0.046 | 0.293 ± 0.0055 | 0.332 ± 0.016 | 0.4919 ± 0.0048 | 0.454 ± 0.01
2 | DGYLFKGIWFFV | 0.645 ± 0.011 | 0.7326 ± 0.0039 | 0.617 ± 0.033 | 0.738 ± 0.036 | 0.145 ± 0.0041 | 0.163 ± 0.022 | 0.349 ± 0.0098 | 0.189 ± 0.031
3 | DKVTLLRRCKQY | 0.606 ± 0.03 | 0.726 ± 0.009 | 0.634 ± 0.026 | 0.701 ± 0.015 | 0.173 ± 0.029 | 0.206 ± 0.03 | 0.311 ± 0.012 | 0.202 ± 0.12
4 | DLRGLGRFRISH | 0.6886 ± 0.0067 | 0.741 ± 0.021 | 0.64 ± 0.031 | 0.7181 ± 0.0055 | 0.486 ± 0.0072 | 0.503 ± 0.024 | 0.677 ± 0.017 | 0.572 ± 0.11
5 | DLVGRETRMRLN | 0.6744 ± 0.0063 | 0.70449 ± 0.00037 | 0.633 ± 0.039 | 0.7221 ± 0.0045 | 0.202 ± 0.01 | 0.263 ± 0.022 | 0.526 ± 0.097 | 0.383 ± 0.0088
6 | DPTLLLYPLSPL | 0.688 ± 0.018 | 0.765 ± 0.0076 | 0.654 ± 0.019 | 0.748 ± 0.014 | 0.667 ± 0.029 | 0.685 ± 0.035 | 0.72 ± 0.023 | 0.57 ± 0.2
7 | DVVRWQRVRNYV | 0.687 ± 0.024 | 0.7218 ± 0.0072 | 0.632 ± 0.022 | 0.737 ± 0.0088 | 0.2746 ± 0.0021 | 0.3 ± 0.028 | 0.573 ± 0.0059 | 0.454 ± 0.041
8 | EGGGGRFWVCVG | 0.676 ± 0.044 | 0.732 ± 0.012 | 0.631 ± 0.0097 | 0.748 ± 0.014 | 0.258 ± 0.0033 | 0.298 ± 0.034 | 0.596 ± 0.018 | 0.425 ± 0.028
9 | EKHRRYAITKFI | 0.666 ± 0.019 | 0.694 ± 0.052 | 0.659 ± 0.027 | 0.732 ± 0.025 | 0.155 ± 0.0053 | 0.196 ± 0.058 | 0.407 ± 0.1 | 0.28 ± 0.043
10 | EKKNQTAYNKTV | 0.691 ± 0.035 | 0.71 ± 0.023 | 0.644 ± 0.013 | 0.707 ± 0.022 | 0.149 ± 0.021 | 0.176 ± 0.028 | 0.365 ± 0.0059 | 0.39 ± 0.018
11 | EKTKTKRERKIN | 0.576 ± 0.0019 | 0.696 ± 0.008 | 0.626 ± 0.045 | 0.715 ± 0.036 | 0.165 ± 0.0048 | 0.191 ± 0.015 | 0.384 ± 0.0062 | 0.312 ± 0.028
12 | ELNERRKRLVTN | 0.623 ± 0.052 | 0.737 ± 0.01 | 0.6615 ± 0.0035 | 0.718 ± 0.0088 | 0.13 ± 0.021 | 0.142 ± 0.012 | 0.268 ± 0.033 | 0.304 ± 0.011
13 | ERNERKYKIKIT | 0.699 ± 0.018 | 0.724 ± 0.035 | 0.609 ± 0.042 | 0.715 ± 0.026 | 0.179 ± 0.013 | 0.239 ± 0.037 | 0.461 ± 0.034 | 0.374 ± 0.041
14 | ESCFGMAIFCVT | 0.526 ± 0.012 | 0.571 ± 0.011 | 0.37 ± 0.03 | 0.5841 ± 0.0045 | 0.301 ± 0.012 | 0.334 ± 0.03 | 0.525 ± 0.01 | 0.466 ± 0.024
15 | ESCIFLMWLTVL | 0.177 ± 0.013 | 0.273 ± 0.024 | 0.222 ± 0.032 | 0.379 ± 0.0044 | 0.0814 ± 0.021 | 0.0868 ± 0.012 | 0.0936 ± 0.013 | 0.136 ± 0.0054
16 | ESFIKFALYIVN | 0.557 ± 0.052 | 0.604 ± 0.0067 | 0.435 ± 0.023 | 0.621 ± 0.014 | 0.348 ± 0.013 | 0.358 ± 0.036 | 0.5099 ± 0.00084 | 0.419 ± 0.0082
17 | EVVFHVFLVGLV | 0.314 ± 0.015 | 0.451 ± 0.015 | 0.292 ± 0.035 | 0.512 ± 0.018 | 0.203 ± 0.012 | 0.274 ± 0.013 | 0.464 ± 0.0058 | 0.362 ± 0.0059
18 | FALPPSLLLLSA | 0.544 ± 0.019 | 0.557 ± 0.013 | 0.442 ± 0.027 | 0.5917 ± 0.0017 | 0.418 ± 0.0085 | 0.449 ± 0.016 | 0.55962 ± 0.00044 | 0.501 ± 0.026
19 | FCCLIGYIWYGW | 0.45071 ± 0.00045 | 0.5083 ± 0.00082 | 0.392 ± 0.041 | 0.527 ± 0.013 | 0.344 ± 0.0071 | 0.363 ± 0.011 | 0.514 ± 0.039 | 0.488 ± 0.019
20 | FCFLLLSWAFWV | 0.155 ± 0.026 | 0.205 ± 0.0084 | 0.171 ± 0.03 | 0.27279 ± 7.6e-05 | 0.0977 ± 0.011 | 0.103 ± 0.026 | 0.1757 ± 0.00047 | 0.159 ± 0.048

Row | Sequence | protein stability index [1, 3] | protein stability index [1, 4] | protein stability index [1, 5] | protein stability index [1, 6] | protein stability index [1, 7] | protein stability index [1, 8] | protein stability index [1, 9] | protein stability index [2]
21 | FCFVRGLLFLFF | 0.476 ± 0.0094 | 0.574 ± 0.065 | 0.383 ± 0.035 | 0.5423 ± 0.0025 | 0.386 ± 0.013 | 0.36 ± 0.034 | 0.506 ± 0.023 | 0.442 ± 0.06
22 | FCIYLCLSTSIT | 0.0795 ± 0.0063 | 0.221 ± 0.0083 | 0.14 ± 0.036 | 0.306 ± 0.025 | 0.119 ± 0.0062 | 0.129 ± 0.027 | 0.247 ± 0.0029 | 0.374 ± 0.084
23 | FCSLLVLLFFGV | 0.395 ± 0.042 | 0.4792 ± 0.0038 | 0.334 ± 0.018 | 0.473 ± 0.0052 | 0.323 ± 0.025 | 0.337 ± 0.022 | 0.466 ± 0.013 | 0.39365 ± 4e-05
24 | FELSVSVFQSVV | 0.318 ± 0.048 | 0.388 ± 0.0039 | 0.374 ± 0.023 | 0.3368 ± 0.002 | 0.409 ± 0.048 | 0.384 ± 0.044 | 0.318 ± 0.0051 | 0.338 ± 0.031
25 | FERVEYEVLGIG | 0.35 ± 0.0065 | 0.441 ± 0.037 | 0.394 ± 0.0079 | 0.449 ± 0.017 | 0.395 ± 0.012 | 0.38 ± 0.017 | 0.44 ± 0.021 | 0.415 ± 0.014
26 | FFASAAVHLVTC | 0.513 ± 0.01 | 0.521 ± 0.032 | 0.435 ± 0.02 | 0.559 ± 0.014 | 0.312 ± 0.0063 | 0.34 ± 0.016 | 0.491 ± 0.0037 | 0.4533 ± 0.0034
27 | FFLLLVGFSVLG | 0.223 ± 0.071 | 0.265 ± 0.012 | 0.238 ± 0.024 | 0.421 ± 0.024 | 0.224 ± 0.024 | 0.222 ± 0.021 | 0.373 ± 0.0038 | 0.349 ± 0.0064
28 | FFLLTCFLLPSV | 0.44 ± 0.03 | 0.512 ± 0.013 | 0.346 ± 0.036 | 0.526 ± 0.014 | 0.328 ± 0.013 | 0.341 ± 0.024 | 0.514 ± 0.014 | 0.441 ± 0.015
29 | FFLSFRLFSILL | 0.304 ± 0.033 | 0.359 ± 0.021 | 0.342 ± 0.021 | 0.413 ± 0.014 | 0.412 ± 0.027 | 0.292 ± 0.017 | 0.368 ± 0.011 | 0.3114 ± 0.0026
30 | FFLVILSWWVGE | 0.182 ± 0.023 | 0.225 ± 0.056 | 0.197 ± 0.036 | 0.345 ± 0.028 | 0.185 ± 0.0019 | 0.205 ± 0.052 | 0.31 ± 0.017 | 0.242 ± 0.017
31 | FFMLWCRVLLRL | 0.144 ± 0.026 | 0.102 ± 0.017 | 0.215 ± 0.014 | 0.278 ± 0.0028 | 0.18536 ± 0.00012 | 0.145 ± 0.031 | 0.167 ± 0.0071 | 0.2187 ± 0.002
32 | FFVFPFGLLFLS | 0.504 ± 0.058 | 0.515 ± 0.013 | 0.433 ± 0.023 | 0.583 ± 0.011 | 0.2525 ± 0.0007 | 0.232 ± 0.02 | 0.385 ± 0.0085 | 0.342 ± 0.0054
33 | FFVKGFRLLVFQ | 0.454 ± 0.039 | 0.481 ± 0.013 | 0.421 ± 0.04 | 0.573 ± 0.014 | 0.461 ± 0.019 | 0.384 ± 0.014 | 0.516 ± 0.046 | 0.47 ± 0.015
34 | FIGVLVYICREG | 0.1903 ± 0.0018 | 0.359 ± 0.084 | 0.254 ± 0.017 | 0.44 ± 0.024 | 0.187 ± 0.0062 | 0.228 ± 0.037 | 0.373 ± 0.018 | 0.329 ± 0.032
35 | FITFLVFVGFFL | 0.393 ± 0.06 | 0.421 ± 0.0078 | 0.313 ± 0.022 | 0.495 ± 0.026 | 0.263 ± 0.0094 | 0.295 ± 0.026 | 0.448 ± 0.0071 | 0.355 ± 0.034
36 | FKKIKGKIEKKN | 0.736 ± 0.021 | 0.897 ± 0.023 | 0.609 ± 0.042 | 0.726 ± 0.05 | 0.339 ± 0.061 | 0.336 ± 0.012 | 0.448 ± 0.0082 | 0.481 ± 0.023
37 | FKWVSRIRLLDA | 0.485 ± 0.014 | 0.566 ± 0.049 | 0.51 ± 0.023 | 0.483 ± 0.0055 | 0.24 ± 0.028 | 0.246 ± 0.016 | 0.411 ± 0.017 | 0.316 ± 0.027
38 | FKYRVPLVGVVK | 0.30503 ± 3.5e-05 | 0.317 ± 0.033 | 0.245 ± 0.029 | 0.43316 ± 0.00012 | 0.203 ± 0.018 | 0.25 ± 0.02 | 0.3897 ± 0.00038 | 0.347 ± 0.0072
39 | FLDYLLFIFFFF | 0.431 ± 0.054 | 0.519 ± 0.041 | 0.419 ± 0.032 | 0.522 ± 0.0072 | 0.464 ± 0.0094 | 0.392 ± 0.037 | 0.473 ± 0.039 | 0.415 ± 0.008
